Experimental data reported in patent publication US20260232800A1 (ADAPTIMMUNE, published 2026).

biological target: complex of PRAME peptide … (SEQ ID NO: 1) and HLA-A*02:01, presented on peptide-pulsed T2 cells (human); assay: cell-based or functional assay

Binder	EC50 (peptide concentration required to induce half-maximal T-cell activation; IFNγ supernatant ELISA, transduced primary T cells with peptide-pulsed T2 cells) [log10 M]
TCR 3 (ADB02780_025) (TCR, V domains shown) V domain 1: GQQLNQSPQSMFIQEGEDVSMNCTSSSIFNTWLWYKQDPGEGPVLLIALYKAGELTSNGRLTAQFGITRKDSFLNISASIPSDVGIYFCAGQASGTYKYIFGTGTRLKVLA V domain 2: EAQVTQNPRYLITVTGKKLTVTCSQNMNHEYMSWYRQDPGLGLRQIYYSINVEVTDKGDVPEGYKVSRKEKRNFPLILESPSPNQTSLYFCASSHGTSGEQYFGPGTRLTVT	-7.8
TCR 8 (ADB02780_106) (TCR, V domains shown) V domain 1: GQQLNQSPQSMFIQEGEDVSMNCTSSSIFATWLWYKQDPGEGPVLLIALYKAGELTSNGRLTAQFGITRKDSFLNISASIPSDVGIYFCAGQASGTYKYIFGTGTRLKVLA V domain 2: EAQVTQNPRYLITVTGKKLTVTCSQNMNHEYMSWYRQDPGLGLRQIYYSINVEVTDKGDVPEGYKVSRKEKRNFPLILESPSPNQTSLYFCASSHGTSGEQYFGPGTRLTVT	-7.8
TCR 7 (ADB02780_077) (TCR, V domains shown) V domain 1: GQQLNQSPQSMFIQEGEDVSMNCTSSSIFHTWLWYKQDPGEGPVLLIALYKAGELTSNGRLTAQFGITRKDSFLNISASIPSDVGIYFCAGQASGTYKYIFGTGTRLKVLA V domain 2: EAQVTQNPRYLITVTGKKLTVTCSQNMNHEYMSWYRQDPGLGLRQIYYSINVEVTDKGDVPEGYKVSRKEKRNFPLILESPSPNQTSLYFCASSHGTSGEQYFGPGTRLTVT	-8.7
TCR 9 (ADB02780_107) (TCR, V domains shown) V domain 1: GQQLNQSPQSMFIQEGEDVSMNCTSSSIFMTWLWYKQDPGEGPVLLIALYKAGELTSNGRLTAQFGITRKDSFLNISASIPSDVGIYFCAGQASGTYKYIFGTGTRLKVLA V domain 2: EAQVTQNPRYLITVTGKKLTVTCSQNMNHEYMSWYRQDPGLGLRQIYYSINVEVTDKGDVPEGYKVSRKEKRNFPLILESPSPNQTSLYFCASSHGTSGEQYFGPGTRLTVT	-7.8
TCR 4 (ADB02780_062) (TCR, V domains shown) V domain 1: GQQLNQSPQSMFIQEGEDVSMNCTSSSIFLTWLWYKQDPGEGPVLLIALYKAGELTSNGRLTAQFGITRKDSFLNISASIPSDVGIYFCAGQASGTYKYIFGTGTRLKVLA V domain 2: EAQVTQNPRYLITVTGKKLTVTCSQNMNHEYMSWYRQDPGLGLRQIYYSINVEVTDKGDVPEGYKVSRKEKRNFPLILESPSPNQTSLYFCASSHGTSGEQYFGPGTRLTVT	-8.7

Further lines, results first:

EC50 (peptide concentration required to induce half-maximal T-cell activation; IFNγ supernatant ELISA, transduced primary T cells with peptide-pulsed T2 cells) [log10 M]	Binder
-8.8	TCR 5 (ADB02780_063) (TCR, V domains shown) V domain 1: GQQLNQSPQSMFIQEGEDVSMNCTSSSIFETWLWYKQDPGEGPVLLIALYKAGELTSNGRLTAQFGITRKDSFLNISASIPSDVGIYFCAGQASGTYKYIFGTGTRLKVLA V domain 2: EAQVTQNPRYLITVTGKKLTVTCSQNMNHEYMSWYRQDPGLGLRQIYYSINVEVTDKGDVPEGYKVSRKEKRNFPLILESPSPNQTSLYFCASSHGTSGEQYFGPGTRLTVT
-8.8	TCR 6 (ADB02780_070) (TCR, V domains shown) V domain 1: GQQLNQSPQSMFIQEGEDVSMNCTSSSIFVTWLWYKQDPGEGPVLLIALYKAGELTSNGRLTAQFGITRKDSFLNISASIPSDVGIYFCAGQASGTYKYIFGTGTRLKVLA V domain 2: EAQVTQNPRYLITVTGKKLTVTCSQNMNHEYMSWYRQDPGLGLRQIYYSINVEVTDKGDVPEGYKVSRKEKRNFPLILESPSPNQTSLYFCASSHGTSGEQYFGPGTRLTVT
